In PMC10786891, “Massively parallel profiling of RNA-targeting CRISPR-Cas13d”:
Positions count from the first letter of the chain named. Names may count otherwise.

T1: EsCas13d, nuclease-dead (Eubacterium siraeum, UniProt B0MS50, R295A;H300A;R849A;H854A)
T1 sequence: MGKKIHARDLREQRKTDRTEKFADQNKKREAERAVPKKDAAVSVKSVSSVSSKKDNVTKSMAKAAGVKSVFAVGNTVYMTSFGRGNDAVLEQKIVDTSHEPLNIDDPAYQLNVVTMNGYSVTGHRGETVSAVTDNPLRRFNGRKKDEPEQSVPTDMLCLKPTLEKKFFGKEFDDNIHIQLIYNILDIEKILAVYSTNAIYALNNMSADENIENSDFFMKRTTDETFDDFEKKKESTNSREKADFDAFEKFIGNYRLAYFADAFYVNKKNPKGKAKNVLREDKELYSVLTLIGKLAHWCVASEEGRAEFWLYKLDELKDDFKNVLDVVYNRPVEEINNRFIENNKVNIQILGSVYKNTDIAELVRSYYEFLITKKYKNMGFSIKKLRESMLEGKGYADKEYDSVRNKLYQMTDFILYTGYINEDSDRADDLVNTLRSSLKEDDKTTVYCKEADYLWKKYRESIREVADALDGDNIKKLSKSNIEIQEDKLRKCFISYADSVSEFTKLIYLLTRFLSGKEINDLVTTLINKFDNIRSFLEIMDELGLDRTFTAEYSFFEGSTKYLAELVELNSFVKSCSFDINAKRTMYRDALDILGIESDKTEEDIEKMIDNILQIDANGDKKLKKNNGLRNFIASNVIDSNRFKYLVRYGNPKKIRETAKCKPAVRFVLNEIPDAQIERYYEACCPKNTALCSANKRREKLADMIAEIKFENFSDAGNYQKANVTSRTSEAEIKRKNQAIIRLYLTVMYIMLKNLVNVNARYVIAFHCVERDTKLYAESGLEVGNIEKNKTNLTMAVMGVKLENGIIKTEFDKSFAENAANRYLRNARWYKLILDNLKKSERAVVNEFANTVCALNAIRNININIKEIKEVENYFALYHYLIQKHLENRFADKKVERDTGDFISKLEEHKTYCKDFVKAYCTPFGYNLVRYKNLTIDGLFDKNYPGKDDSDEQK

B1: target 1 complement block 4-8 (mixed)
RNA 1: CACCCGUGCAAAAAUGCAGGGGUCUAAAACUGAGCGGAUAACCUCUCUAUGG
RNA 2: GGGAAUGGAUCCACAUCUACGAAUUCGUACCAUAGAGAGGUUAAGGCGUCACCGAGAUCGGAAGAGCACACGU
B2: target 1 insA 3' of 22,insC 3' of 12 (mixed)
RNA 1: B1 RNA 1
RNA 2: GGGAAUGGAUCCACAUCUACGAAUUCGUACACAUAGAGAGGCUUAUCCGCUCACCGAGAUCGGAAGAGCACACGU
B3: target 1 U3A,C4G (mixed)
RNA 1: B1 RNA 1
RNA 2: B1 RNA 2 with A44U, G45C, G46C, C47G, U49A
B4: target 1 insU 3' of 1,insG 3' of 1 (mixed)
RNA 1: B1 RNA 1
RNA 2: GGGAAUGGAUCCACAUCUACGAAUUCGUACCAUAGAGAGGUUAUCCGCUCAUGCCGAGAUCGGAAGAGCACACGU
B5: target 1 insA 3' of 12,insA 3' of 10 (mixed)
RNA 1: B1 RNA 1
RNA 2: GGGAAUGGAUCCACAUCUACGAAUUCGUACCAUAGAGAGGAUUAAUCCGCUCACCGAGAUCGGAAGAGCACACGU
B6: target 1 insC 3' of 20,insU 3' of 7 (mixed)
RNA 1: B1 RNA 1
RNA 2: B2 RNA 2 with A31C, C32A, A33C, C42U, U44A, A45U, U46C, C47U
B7: target 1 C2A,U8G (mixed)
RNA 1: B1 RNA 1
RNA 2: B1 RNA 2 with A44G, G45C, G46C, C47G, G48C, C50A
B8: target 1 U8C,A16C (mixed)
RNA 1: B1 RNA 1
RNA 2: B1 RNA 2 with A36C, A44C, G45C, G46C, C47G, G48C
B9: target 1 C2G,U3G (mixed)
RNA 1: B1 RNA 1
RNA 2: B1 RNA 2 with A44U, G45C, G46C, C47G, G48C, U49G, C50G
B10: target 1 C22A (mixed)
RNA 1: B1 RNA 1
RNA 2: B1 RNA 2 with C30A, A44U, G45C, G46C, C47G, G48C
B11: target 1 U3A,C6A (mixed)
RNA 1: B1 RNA 1
RNA 2: B1 RNA 2 with A44U, G45C, G46A, C47G, G48C, U49A
B12: target 1 insA 3' of 22,insA 3' of 13 (mixed)
RNA 1: B1 RNA 1
RNA 2: B2 RNA 2 with G41A, C42G
B13: target 1 G13C,G15A (mixed)
RNA 1: B1 RNA 1
RNA 2: B1 RNA 2 with G37A, G39C, A44U, G45C, G46C, C47G, G48C
B14: target 1 del12,del13 (mixed)
RNA 1: B1 RNA 1
RNA 2: GGGAAUGGAUCCACAUCUACGAAUUCGUACCAUAGAGAUUAUCCGCUCACCGAGAUCGGAAGAGCACACGU
B15: target 1 insA 3' of 21,insA 3' of 4 (mixed)
RNA 1: B1 RNA 1
RNA 2: B2 RNA 2 with A31C, C32A, C42U, U44A, A45U, U46C, C48G, G49C, C50A
B16: target 1 insU 3' of 5 (mixed)
RNA 1: B1 RNA 1
RNA 2: GGGAAUGGAUCCACAUCUACGAAUUCGUACCAUAGAGAGGUUAUCCGUCUCACCGAGAUCGGAAGAGCACACGU
B17: target 1 C4U,C6U (mixed)
RNA 1: B1 RNA 1
RNA 2: B1 RNA 2 with A44U, G45C, G46U, C47G, G48U
B18: target 1 G12A,A14G (mixed)
RNA 1: B1 RNA 1
RNA 2: B1 RNA 2 with A38G, G40A, A44U, G45C, G46C, C47G, G48C
B19: target 1 insU 3' of 22,insG 3' of 6 (mixed)
RNA 1: B1 RNA 1
RNA 2: B2 RNA 2 with A31U, C42U, U44A, A45U, U46C, C48G
B20: target 1 G12A,C21A (mixed)
RNA 1: B1 RNA 1
RNA 2: B1 RNA 2 with C31A, G40A, A44U, G45C, G46C, C47G, G48C
B21: target 1 insG 3' of 10,insA 3' of 10 (mixed)
RNA 1: B1 RNA 1
RNA 2: B5 RNA 2 with A41U, U43G
B22: target 1 insC 3' of 22,insA 3' of 10 (mixed)
RNA 1: B1 RNA 1
RNA 2: B2 RNA 2 with A31C, C42U, U44A
B23: target 1 insC 3' of 18,insC 3' of 15 (mixed)
RNA 1: B1 RNA 1
RNA 2: B2 RNA 2 with A31C, C32A, A33U, U34A, A35C, A39C, G40A, C42G
B24: target 1 insU 3' of 18,insU 3' of 18 (mixed)
RNA 1: B1 RNA 1
RNA 2: B5 RNA 2 with G35U, A36U, G40A, A41G, U42G, A44U
B25: target 1 C7U,U8A (mixed)
RNA 1: B1 RNA 1
RNA 2: B1 RNA 2 with G45U, G46C, C47G, G48C
B26: target 1 insA 3' of 5,insG 3' of 2 (mixed)
RNA 1: B1 RNA 1
RNA 2: B4 RNA 2 with C48A, U49C, C50U, A51C, U52G, G53A
B27: target 1 G12C,G13C (mixed)
RNA 1: B1 RNA 1
RNA 2: B1 RNA 2 with G39C, G40C, A44U, G45C, G46C, C47G, G48C
B28: target 1 insG 3' of 20,insU 3' of 2 (mixed)
RNA 1: B1 RNA 1
RNA 2: GGGAAUGGAUCCACAUCUACGAAUUCGUACCAGUAGAGAGGUUAUCCGCUCUACCGAGAUCGGAAGAGCACACGU
B29: target 1 U10A,G13A (mixed)
RNA 1: B1 RNA 1
RNA 2: B1 RNA 2 with G39A, U42A, A44U, G45C, G46C, C47G, G48C
B30: target 1 insU 3' of 1,insC 3' of 1 (mixed)
RNA 1: B1 RNA 1
RNA 2: B4 RNA 2 with G53C
B31: target 1 C4G,C22A (mixed)
RNA 1: B1 RNA 1
RNA 2: B1 RNA 2 with C30A, A44U, G45C, G46C, C47G
B32: target 1 G17U,C21A (mixed)
RNA 1: B1 RNA 1
RNA 2: B1 RNA 2 with C31A, G35U, A44U, G45C, G46C, C47G, G48C
B33: target 1 insA 3' of 19,insG 3' of 3 (mixed)
RNA 1: B1 RNA 1
RNA 2: B28 RNA 2 with G33U, U34A, C51G, U52C
B34: target 1 insG 3' of 16,insC 3' of 16 (mixed)
RNA 1: B1 RNA 1
RNA 2: B5 RNA 2 with A38C, G40A, A41G, U42G, A44U

The binders below were run against T1, EsCas13d, nuclease-dead (assay: crRNA (strand 1, pre-loaded); Mg2+; 40 mM Tris-HCl pH 7.5, 150 mM NaCl, 6 mM MgCl2, 1 mM DTT, 0.1% Tween-20, 0.2 mg/ml BSA; 25 C; 10 min per concentration, then washed). Conditions: tags: His6-TwinStrep-SUMO cleaved; N-terminal SNAP kept (SNAP-Surface 488); label: 3' end held by stalled T7 RNA polymerase.

| Binder | Kd [nM] |
| --- | --- |
| B1 | 9.57 ± 0.27 |
| B2 | 20.1 ± 1.2 |
| B3 | 5.74 ± 0.33 |
| B4 | 11.6 ± 1 |
| B5 | 32 ± 7 |
| B6 | 13.2 ± 1 |
| B7 | 19.4 ± 1.3 |
| B8 | 77 ± 5 |
| B9 | 4.43 ± 0.34 |
| B10 | 13.5 ± 0.7 |
| B11 | 5.02 ± 0.21 |
| B12 | 6 ± 0.4 |
| B13 | 46 ± 9 |
| B14 | 18.6 ± 1.8 |
| B15 | 10.2 ± 1.3 |
| B16 | 18.1 ± 2.5 |
| B17 | 28 ± 8 |

| Binder | Kd [nM] |
| --- | --- |
| B18 | 41 ± 6 |
| B19 | 34 ± 7 |
| B20 | 34.8 ± 2.2 |
| B21 | 10.7 ± 0.6 |
| B22 | 28.2 ± 3.4 |
| B23 | 56 ± 8 |
| B24 | 30.9 ± 2 |
| B25 | 12.9 ± 0.7 |
| B26 | 8.3 ± 0.7 |
| B27 | 30 ± 6 |
| B28 | ~60 |
| B29 | 9.5 ± 1 |
| B30 | 11.6 ± 0.6 |
| B31 | 5.9 ± 0.4 |
| B32 | 40 ± 7 |
| B33 | 13.2 ± 0.6 |
| B34 | 31.5 ± 1.8 |
